From patent publication US20230203161A1 (TENEOBIO, published 2023)
Values belong to the binder of their own block, whether it stands above or below them.

Columns and labels:
[1] = molecular target: T1, human Prostate Specific Membrane Antigen (PSMA) (human, UniProt Q04609 1-750); assay: cell binding, flow cytometry, PC3-PSMA cells
T1 construct: whole, on cells; also called Glutamate Carboxypeptidase II; FOLH1

[2] = molecular target: T1, human Prostate Specific Membrane …; assay: cell binding, flow cytometry, 22Rv1 cells
[3] = molecular target: T1, human Prostate Specific Membrane …; assay: cell binding, flow cytometry, LNCAP cells
[4] = molecular target: T1, human Prostate Specific Membrane …; assay: cell-based or functional assay
[5] = molecular target: T1, human Prostate Specific Membrane …; assay: cell binding, flow cytometry, MDA-PCa-2b cells
[6] = molecular target: T1, human Prostate Specific Membrane …; assay: flow cytometry on LNCaP cells
Method: Briefly, 50,000 target cells were stained with a dilution series of purified UniAbs™ for 30 minutes at 4° C. Following incubation, the cells were washed twice with flow cytometry buffer (1×PBS, 1% BSA, 0.1% NaN₃) and stained with goat F(ab′)₂ anti-human IgG conjugated to R-phycoerythrin (PE) (Southern Biotech, cat. #2042-09) to detect cell-bound antibodies. After a 20-minute incubation at 4° C., the cells were washed twice with flow cytometry buffer and the mean fluorescence intensity (MFI) was measured by flow cytometry. The MFI of cells stained with secondary antibody alone were used for determination of background signal and binding of each antibody was converted to fold over background. […] In some experiments EC50 values were calculated using GraphPad Prism 7.
Column 1 indicates the clone ID of the HCAb. Column 2 indicates binding to LNCaP cells measured as fold over the background MFI signal.

T1 sequence (Q04609 whole entry): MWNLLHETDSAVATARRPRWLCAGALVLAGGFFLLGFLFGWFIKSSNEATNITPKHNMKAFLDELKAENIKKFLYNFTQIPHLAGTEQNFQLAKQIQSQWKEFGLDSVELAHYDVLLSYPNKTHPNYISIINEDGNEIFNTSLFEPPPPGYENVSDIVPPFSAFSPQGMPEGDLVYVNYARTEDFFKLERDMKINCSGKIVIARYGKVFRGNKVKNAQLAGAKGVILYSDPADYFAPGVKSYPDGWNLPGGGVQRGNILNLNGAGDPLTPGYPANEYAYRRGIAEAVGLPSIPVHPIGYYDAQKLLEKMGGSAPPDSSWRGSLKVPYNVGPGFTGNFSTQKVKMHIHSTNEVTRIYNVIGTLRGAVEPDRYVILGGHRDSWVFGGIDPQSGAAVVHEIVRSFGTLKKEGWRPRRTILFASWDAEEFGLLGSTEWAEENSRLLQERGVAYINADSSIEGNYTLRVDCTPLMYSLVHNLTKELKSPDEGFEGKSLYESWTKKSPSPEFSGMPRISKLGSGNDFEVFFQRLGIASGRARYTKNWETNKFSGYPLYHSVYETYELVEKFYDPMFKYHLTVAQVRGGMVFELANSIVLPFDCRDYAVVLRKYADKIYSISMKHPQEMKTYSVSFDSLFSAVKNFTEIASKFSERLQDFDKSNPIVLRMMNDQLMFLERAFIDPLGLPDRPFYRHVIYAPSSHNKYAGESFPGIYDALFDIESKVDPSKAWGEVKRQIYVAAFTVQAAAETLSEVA

EC50 [1]: 30 nM
EC50 [2]: 58 nM
EC50 [3]: 17 nM
IFNγ EC50, 22Rv1 cells [4]: 174 nM
IFNγ EC50, LNCAP cells [4]: 63 nM
IFNγ EC50, MDA-PCa-2b cells [4]: 116 nM
IFNγ EC50, PC3-PSMA cells [4]: 10.1 nM
IL-2 EC50, LNCAP cells [4]: 575 nM
IL-2 EC50, MDA-PCa-2b cells [4]: 38.5 nM
IL-2 EC50, PC3-PSMA cells [4]: 4.1 nM
EC50 [5]: 28 nM
B1: monoparatopic PSMA×CD3 bispecific antibody 346181×CD3 (bispecific antibody)
chain 1: QLQLQESGPGLVKPSETLSLTCTVSGGSISSSNYFWGWIRQSPGKGLEWIGSIDYSGYTYYNPSLKSRVTISVDTSKNQFSLKLSSVTAADTAVYNCARHKAATADFDYRGQGTLVTVSS
chain 2: EVQLVESGGGLVQPGRSLRLSCAASGFTFDDYAMHWVRQAPGKGLEWVSGISWNSGSIGYADSVKGRFTISRDNAKNSLYLQMNSLRAEDTALYYCAKDSRGYGDYRLGGAYWGQGTLVTVSS
chain 3: not shown
Kill EC50, 22Rv1 cells, resting T-cells [4]: 52.8 nM
Kill EC50, LNCAP cells, resting T-cells [4]: 14.6 nM
Kill EC50, MDA-PCa-2b cells, resting T-cells [4]: 23.6 nM
Kill EC50, PC3-PSMA cells, resting T-cells [4]: 3.7 nM

EC50 [1]: 6 nM
EC50 [2]: 3 nM
EC50 [3]: 2 nM
IFNγ EC50, 22Rv1 cells [4]: 380 nM
IFNγ EC50, LNCAP cells [4]: 3.29 nM
IFNγ EC50, MDA-PCa-2b cells [4]: 0.9 nM
IFNγ EC50, PC3-PSMA cells [4]: 1.01 nM
IL-2 EC50, LNCAP cells [4]: 3.73 nM
IL-2 EC50, MDA-PCa-2b cells [4]: 1.11 nM
IL-2 EC50, PC3-PSMA cells [4]: 1.1 nM
EC50 [5]: 2 nM
B2: biparatopic anti-PSMA×CD3 antibody 350123×CD3 (bispecific antibody)
chain 1: QLQLQESGPGLVKPSETLSLTCTVSGGSISSSNYFWGWIRQSPGKGLEWIGSIDYSGYTYYNPSLKSRVTISVDTSKNQFSLKLSSVTAADTAVYNCARHKAATADFDYRGQGTLVTVSSGGGGSGGGGSQVQLVESGGGVVQPGRSLRLSCAASGFSFSRYGMHWVRQAPGKGLEGVAVIWYDGSNRYYADSVKGRFTISRDNSKNTLYLQMNSLRAEDTAVYYCAREPRIGYYYESSGYYSLDYRGQGTLVTVSS
chain 2: B1 chain 2
chain 3: not shown
Kill EC50, 22Rv1 cells, resting T-cells [4]: 0.42 nM
Kill EC50, LNCAP cells, resting T-cells [4]: 0.84 nM
Kill EC50, MDA-PCa-2b cells, resting T-cells [4]: 0.41 nM
Kill EC50, PC3-PSMA cells, resting T-cells [4]: 0.4 nM

fold over background MFI [6]: 13 fold over background
B3: anti-PSMA heavy-chain antibody (HCAb) clone ID 345510 (antibody, V domains shown)
VH: QVQLVESGGGVVQPGRSLRLSCAASGFSFSSYGMHWVRQAPGKGLEWVAVIWYDGSNKYYADSVKGRFTISRDNSKNTMYLQMNSLRAEDTAVYYCAREPRIGYYYESSGYYSLDYRGQGTLVTVSS
notes: Heavy chain-only antibody (UniAb)
